Blank lines part the entries; values can stand above or below the binder they belong to.
What was measured:
[1] = molecular target: T1, human VLA-1 α1 subunit (CD49a), full-length, on transfected CHO cells (human, UniProt P56199 29-1179); test: cell-based or functional assay
[2] = molecular target: T1, human VLA-1 α1 subunit (CD49a), …; test: cell-based or functional assay; remark: listed apart in the source
[3] = molecular target: T2, human VLA-1 (alpha 1/beta 1, CD49a/CD29) on IL-2 stimulated human PBMC / T cells (human, UniProt P56199 29-1179; P05556 21-798); test: cell-based or functional assay
[4] = molecular target: T2, human VLA-1 (alpha 1/beta 1, …); test: cell-based or functional assay; remark: listed apart in the source
[5] = molecular target: T2, human VLA-1 (alpha 1/beta 1, …); test: cell-based or functional assay; remark: listed apart in the source
[6] = molecular target: T3, human CD49a I domain I11F (human, UniProt P56199 151-364, I11F); test: ELISA on secreted mutant I domain
T3 construct: domain: I domain; not shown: myc and His tags

[7] = molecular target: T4, human CD49a I domain E48K (human, UniProt P56199 151-364, E48K); test: ELISA on secreted mutant I domain
T4 construct: domain: I domain; not shown: myc and His tags

[8] = molecular target: T5, human CD49a I domain E66A (human, UniProt P56199 151-364, E66A); test: ELISA on secreted mutant I domain
T5 construct: domain: I domain; not shown: myc and His tags

[9] = molecular target: T6, human CD49a I domain K88N (human, UniProt P56199 151-364, K88N); test: ELISA on secreted mutant I domain
T6 construct: domain: I domain; not shown: myc and His tags

[10] = molecular target: T7, human CD49a I domain with residues 91-96 VQRGGR replaced by mouse GRRGGL (human, UniProt P56199 151-364, V91G; Q92R; R96L); test: ELISA on secreted mutant I domain
T7 construct: domain: I domain; also called V91G, Q92R, R96L; not shown: myc and His tags

[11] = molecular target: T8, human CD49a I domain K142Q (human, UniProt P56199 151-364, K142Q); test: ELISA on secreted mutant I domain
T8 construct: domain: I domain; text prints KI42Q once; not shown: myc and His tags

[12] = molecular target: T9, human CD49a I domain S162H (human, UniProt P56199 151-364, S162H); test: ELISA on secreted mutant I domain
T9 construct: domain: I domain; not shown: myc and His tags

[13] = molecular target: T10, human CD49a I domain T204A (human, UniProt P56199 151-364, T204A); test: ELISA on secreted mutant I domain
T10 construct: domain: I domain; not shown: myc and His tags

B1: 6.3 (antibody, V domains shown)
VH: QVLLQESGPGLVKPSQTLSLTCTVSGGSISSGGYYWSWIRQHPGKGLEWIGYINYSGSAYYNPSLKSRVTISVDTSKNQFSLKLSSVTAADTAVYYCARDHWLLRGFDYWGQGTLVTVSS
VL: DIVMTQTPLSLSVTPGQPASISCKSSQSLLHSDGKTYLYWYLQKPGQPPQLLIYEVSNRFSGVPDRFSGSGSGTDFTLKISRVEAEDVGVYYCMQSIQLPRTFGQGTKVEIK
- IC50, adhesion of CHO-VLA-1 cells to collagen IV [1]: 0.68 nM

B3: 2.25 (antibody, V domains shown)
VH: QVQLQQSGPGLVKPSQTLSLTCAISGDSVSSNSAAWNWIRQSPSRGLEWLGRTYYMSKWYNDYAVSVKSRITINPDTSKNQFSLQLNSVTPEDTAVYYCARARYCGGDCYDFDYWGQGTLVTVSS
VL: DIQMTHSPSSLSASVGDRVTITCRASQSISISLNWYQQKPGNAPKLLIYAASSLQSGIPSRFSGSGSGTDFTLTISSLQPEDFATYYCQQSFSTPWTFGQGTKVEIK
- IC50, adhesion of CHO-VLA-1 cells to collagen IV [1]: 74.9 nM

B9: 2.10 (antibody, V domains shown)
VH: EVQLVESGGGLVKPGGSLRLSCAASGFTLSSYSMNWVRQAPGKGLEWVSSISSSSSYIHYADSVKGRFTISRDNAKNSLYLQMNSLRAEDTAVYYCARAPVVFDYWGQGTLVTVSS
VL: EIVLTQSPGTLSLSPGERATLSCRASQSVSSSYLAWYQQKPGQAPRLLISGASSRATGIPDRFSGSGSGTDFTLTISRLEPEDFAVYYCQQYGGSLTWTFGQGTKVEIK
- IC50, adhesion of CHO-VLA-1 cells to collagen IV [1]: 2.37 nM

B10: 2.1 (antibody, V domains shown)
VH: QVQLQESGPGLVKPSQTLSLTCTVSGGSISSGGYYWSWIRQHPGKGLEWIGYIYNSGSTYYNPSLKSRGTISADTSKNQFSLKLSSVTAADTAVYYCARGSSSYYWYFDLWGRGTLVTVSS
VL: DIQMTQSPSSMSASVGDRVTITCRASQRISSNLNWYQQKPGKAPKFLIYGASSLQSGVPSRFSGSGSGTDFTLTISSLRPEDFATYYCQQSYSTPYTFGPGTKVDIK
- IC50, adhesion of CHO-VLA-1 cells to collagen IV [1]: 21.4 nM

B11: 2.11 (antibody, V domains shown)
VH: QVQLQESGPGLVKPSQTLSLTCTVSGGSINSGGYYWSWIRQHPGKGLEWIGYIFYSGSTYYNPSLKSRVNISVDTSKNQFSLKMSSVTAADTAVYYCARDQDGFDYWGQGTLVTVSS
VL: DIVMTQTPLSLPVTPGEPASISCRSSQSLLDSDDGNTYLDWYLQKPGQSPQLLIYTLSYRASGVPDRFSGSGSGTDFTLKISRVEAEDVGVYYCMQRIEFPWTFGQGTKVEIK
notes: human IgG2 or IgG4
- relative inhibition at an optimal concentration, CHO-VLA-1 adhesion to collagen IV [2]: > 80%
- IC50, adhesion of CHO-VLA-1 cells to collagen IV [1]: 0.07 nM
- binding result [6]: binds
- binding result [7]: binds
- binding result [8]: binds
- binding result [9]: binds
- binding result [10]: binds
- binding result [11]: no binding
- binding result [13]: binds

B12: 4.13 (antibody, V domains shown)
VH: QVQLVQSGAEVKKPGASVKVSCKASGYTFTSYYMNWVRQAPGQGLEWMGIISPSGGSTTYAQKFQGRVTMTRDTSTSTVYMELSSLRSEDTAVYYCARTGYSGYEGYYYGLDVWGQGTTVTVSS
VL: DVVMTQSPLSQPVTLGQPASISCRSSQSLVYSDGNTYLHWFQQRPGQSPRRLIYKVSNWDSGVPDRFSGSGSGTDFTLKISRVEAEDVGVYDCMQGTHWPSTFGGGTKVEIK
- relative inhibition at an optimal concentration, CHO-VLA-1 adhesion to collagen IV [2]: > 80%
- IC50, adhesion of CHO-VLA-1 cells to collagen IV [1]: < 0.01 nM

Continued, values first:

- relative inhibition at an optimal concentration, CHO-VLA-1 adhesion to collagen IV [2]: > 80%
- IC50, adhesion of CHO-VLA-1 cells to collagen IV [1]: 0.12 nM
- % adhesion of IL-2 activated T cells to collagen IV vs no antibody, 10 µg/ml, +PMA [3]: 17.5%
- % adhesion of IL-2 activated T cells to collagen IV vs no antibody, 10 µg/ml, -PMA [3]: 41.3%
- % adhesion of T cells to collagen IV vs no antibody, 0.5 nM mAb, no PMA [4]: 70%
- % adhesion of T cells to collagen IV vs no antibody, 5 nM mAb, no PMA [4]: 16.7%
- % adhesion of T cells to collagen IV vs no antibody, 0.5 nM mAb, 10 ng/ml PMA [5]: 94.6%
- % adhesion of T cells to collagen IV vs no antibody, 5 nM mAb, 10 ng/ml PMA [5]: 72.5%
- binding result [6]: binds
- binding result [7]: binds
- binding result [8]: binds
- binding result [9]: binds
- binding result [10]: no binding
- binding result [11]: binds
- binding result [12]: binds
B2: 6.48 (antibody, V domains shown)
VH: EVQLVQSGAEVKKPGESLRISCKGSGYSVSSYWIGWVRQMPGKGLEWMGIIYPGDSDTRYSPSFQGQVTISADKSISTAFLQWISLKASDTAMYYCARLQGDCSGGSCYGHFDCWGQGTLVTVS
VL: DVVLTQSPLSLPVTLGQPASISCRSSQSLVNSDGDTYLSWFQQWPGQSPRRLFYEVSNWDSGVPDRFSGSGSGTDFTLKISRVEAEDVGVYYCMQGTHWLTFGGGTKVEIK
notes: human IgG2 or IgG4

- relative inhibition at an optimal concentration, CHO-VLA-1 adhesion to collagen IV [2]: > 80%
- IC50, adhesion of CHO-VLA-1 cells to collagen IV [1]: 0.41 nM
B4: 7.22 (antibody, V domains shown)
VH: QVQLQESGPGLGKPSQTLSLTCTVSGGSISSGGHYWSWIRQHPGKGLEWIGYIYYSGSTYYNPSLKSRVTISVDTSKNQFSLKLSSVTAADTAVYYCARDDVRYGGMDVWGQGTTVTVSS
VL: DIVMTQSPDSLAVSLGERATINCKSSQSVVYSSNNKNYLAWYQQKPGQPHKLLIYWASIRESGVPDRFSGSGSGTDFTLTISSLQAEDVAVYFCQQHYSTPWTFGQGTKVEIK

- relative inhibition at an optimal concentration, CHO-VLA-1 adhesion to collagen IV [2]: > 80%
- IC50, adhesion of CHO-VLA-1 cells to collagen IV [1]: 0.19 nM
- % adhesion of IL-2 activated T cells to collagen IV vs no antibody, 10 µg/ml, +PMA [3]: 38.3%
- % adhesion of IL-2 activated T cells to collagen IV vs no antibody, 10 µg/ml, -PMA [3]: 41.3%
- % adhesion of T cells to collagen IV vs no antibody, 0.5 nM mAb, no PMA [4]: 89.2%
- % adhesion of T cells to collagen IV vs no antibody, 5 nM mAb, no PMA [4]: 50.6%
- % adhesion of T cells to collagen IV vs no antibody, 0.5 nM mAb, 10 ng/ml PMA [5]: 98.2%
- % adhesion of T cells to collagen IV vs no antibody, 5 nM mAb, 10 ng/ml PMA [5]: 89.7%
B5: 7.34 (antibody, V domains shown)
VH: EVQLVESGGGLVKPGGSLRLSCAASGFTFSNAWMSWVRQAPGKGLEWVGRIKSKTEGGTTDNVAPVKGRFTISRDDSKNTLYLQMNSLKTEDTAVYYCTITTHYYGMDVWGQGTTVTVSS
VL: DIQMTQSPSSLSASVGDRVTITCRASQTINNYLNWYQQKPGKAPKLLIYAASSLQSGVPSRFSGSGSGTDFTLTISSLQPEDFATYSCQQSNSPPFTFGPGTKVDVK

- relative inhibition at an optimal concentration, CHO-VLA-1 adhesion to collagen IV [2]: > 80%
- IC50, adhesion of CHO-VLA-1 cells to collagen IV [1]: 0.43 nM
B6: 7.73 (antibody, V domains shown)
VH: QVQLQESGPGLVKPSETLSLTCTVSGGSISSHYWSWIRQPAGKGLEWIGRVYSSGSTNSNPSLKSRVTMSVDTAKNQFSLKLSSVTAADTAVYYCAREGYDFWSDYYNYYYGMDVWGQGTTVTVS
VL: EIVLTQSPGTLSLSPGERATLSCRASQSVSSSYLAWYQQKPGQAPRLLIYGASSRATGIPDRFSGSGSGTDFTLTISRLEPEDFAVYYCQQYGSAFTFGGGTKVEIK

- IC50, adhesion of CHO-VLA-1 cells to collagen IV [1]: 4.72 nM
B7: 7.40 (antibody, V domains shown)
VH: QVQLQESGPGLVKPSETLSLTCTVSGGSISSHYWSWIRQPAGKGLEWIGRIYTSGSTNYNPSLKSRVTMSVDTSKNQFSLKLRSVTAADTAVYYCAREGYSSSSGHYDYYYGMDVWGQGTTVTVS
VL: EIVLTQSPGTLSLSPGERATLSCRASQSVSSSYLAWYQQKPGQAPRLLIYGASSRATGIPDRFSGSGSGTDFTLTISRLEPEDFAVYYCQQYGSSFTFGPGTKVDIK

- IC50, adhesion of CHO-VLA-1 cells to collagen IV [1]: 3.25 nM
B8: 7.57 (antibody, V domains shown)
VH: QVQLVQSGAEVKKPGASVRVSCKASGYTFTGYFMHWVRQAPGQGLEWMGWINPNSGGTNYAQKFQGRVTMTRDTSISTASMELSRLRSDDTAVYYCARAPLRYFDWLDYWGQGTLVTVSS
VL: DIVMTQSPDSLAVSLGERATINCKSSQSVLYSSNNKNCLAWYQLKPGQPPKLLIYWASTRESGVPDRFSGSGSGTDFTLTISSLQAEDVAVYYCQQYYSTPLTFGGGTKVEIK

- IC50, adhesion of CHO-VLA-1 cells to collagen IV [1]: 0.94 nM
B13: 7.3 (antibody, V domains shown)
VH: QVQLVESGGGVVQPGRSLRLSCAASGITFSSYGMHWVRQAPGKGLEWVAVMWYEGSNKYYADSVKGRFTISRDNSKNTLYLQMNSLRAEDTAVYYCARGVLRYFDWLSYWGQGTLVTVSS
VL: EIVMTQSPATLSVSPGERATLSCRASQSVSSHLAWYQQKPGQAPRLLIYGASTRATGIPARFSGSGSGTEFTLTISSLQSEDFAVYYCQQYNNWPLTFGGGTKVEIK

— patent US20060286112A1 (published 2006)
